Where a chain is given by its changes, count along the chain named. Numbers in names are those of the source.
B1: λcIDB-AaTadZ (TadZ of Aggregatibacter actinomycetemcomitans fused to the N-terminal DNA-binding domain of λ cI) (natural protein)
chain: MLLLDQETITADSARTITVVSSRDDIQGEVAQTLRTRGLENIEIVKKDFFTSSDEISFSAEDTVGVIIDITHETNIKTIVERVFSVVPQNVWCCVIGDSDSISLSQKLLDEGILYFNSHTQLSQMVEKIILGVDIPRLRDTVKIAVLSCKGGIGASLISSHIANEIVSSKKIPVLLAQGPNGSQDLDLLFDKKLSGNVIEYAPNLDIFNGGLFELTPAATEKYNFIIYDQPIYNVKKDNFIGFLENYNNFVLVVERKIGSLRLAKQFLDECERIRSTSRKPIRTFVCISDNRLEAAKLMAKNDIETLIGSSIDAIIPYVKNTNTKTVLGINLGRDGKKEINSLMLKVIGAISRSSKPKEKQSLFSSFFTKLIKQ
B2: λcIDB-AaTadZ A155K (natural protein)
chain: B1 chain with A155K
B3: λcIDB-AaTadZ S156A (natural protein)
chain: B1 chain with S156A
B4: λcIDB-AaTadZ S156T (natural protein)
chain: B1 chain with S156T
B5: λcIDB-AaTadZ K150R (natural protein)
chain: B1 chain with K150R
B6: λcIDB-AaTadZ K150A (natural protein)
chain: B1 chain with K150A

Target: the molecule itself
Test: λ cI repressor fusion dimerization assay

| Protein | % repression of λpR-lacZ [%] |
| --- | --- |
| B1 | 60.1 |
| B2 | 49.7 |
| B3 | 57.6 |
| B4 | 53.7 |
| B5 | 49 |
| B6 | 60.3 |
